From publication PMC9277520
Each block holds one substance with its values, some of them ahead of it.

Columns and labels:
Assay in all cases: SEC; BV-bound protein on a Superdex 200 10/300 GL column, absorbance at 280, 380 and 630 nm, calibrated with a standard protein mixture; self-association (monomer or tetramer)
[1] = target: Sandercyanin F55A variant (Stizostedion vitreum (Canadian walleye))
[2] = target: Sandercyanin F106A variant (Stizostedion vitreum (Canadian walleye))
[3] = target: Sandercyanin H108A variant (Stizostedion vitreum (Canadian walleye))
[4] = target: Sandercyanin Y142A variant (Stizostedion vitreum (Canadian walleye))
[5] = target: wild-type Sandercyanin (SFP) (Stizostedion vitreum (Canadian walleye))

stoichiometry N [2]: 4
Substance: Sandercyanin F106A variant (natural protein)

stoichiometry N [5]: 4
Substance: wild-type Sandercyanin (SFP) (natural protein)

Continued, substance first:

Substance: Sandercyanin F55A variant (natural protein)
stoichiometry N [1]: 4

Substance: Sandercyanin H108A variant (natural protein)
stoichiometry N [3]: 4

Substance: Sandercyanin Y142A variant (natural protein)
stoichiometry N [4]: 4
